Our source for the EC50 (read off the curve), Kd and binding affinity higher than MECA79 (percent) values is patent US20210284740A1.

In assay [1] the target is peripheral lymph node addressin (PNAd) expressed on CHO cells. Briefly: cell-based ELISA on fixed CHO-PNAd cells, HRP-conjugated secondary antibody, TMB, OD450.
Assay [2] has the same target. Briefly: cell-based ELISA on fixed CHO-PNAd cells, antibody titrated 1 ng/ml to 300 ug/ml, fitted curve.
The target is the same in assay [3]. As to the kind of experiment: cell-based ELISA on fixed CHO-PNAd cells; compared with the reference MECA79.

In the case of MECA79 monoclonal antibody, the concentration giving a half-maximal response (EC50 (read off the curve)) in assay [1] is 5 µg/mL. In addition, the equilibrium dissociation constant (Kd) in assay [2] amounted to 1.41 nM.

B1: MHA112 monoclonal antibody (mAb) (antibody, mouse IgM, V domains shown)
VH: QVQLKESGPGLVAPSQSLSITCTVSGFSLTSYGVDWVRQPPGKGLEWLGVIWGGGSTNYNSALMSRLSISKDNSKSQVFLKMNSLQTDDTAMYYCAKHSKGGYFDVWGTGTTVTVSS
VL: EIVLTQSPAITAASLGQKVTITCSASSSVSYMHWYQQKSGTSPKPWIYEISKLASGVPARFSGSGSGTSYSLTISSMEAEDAAIYYCQQWNYPLITFGAGTKLELK
Take B1: the binding affinity higher than MECA79 (percent) in assay [3] came to 30%. Moreover, the EC50 (read off the curve) in assay [1] turned out to be 4 µg/mL. The same molecule showed a Kd in assay [2] of 0.97 nM.
